From patent US6548290 (Harvard, dated 2003)

Experiments:
[1] = tested on: T1, Xenopus Geminin-H, translated in vitro
T1 sequence: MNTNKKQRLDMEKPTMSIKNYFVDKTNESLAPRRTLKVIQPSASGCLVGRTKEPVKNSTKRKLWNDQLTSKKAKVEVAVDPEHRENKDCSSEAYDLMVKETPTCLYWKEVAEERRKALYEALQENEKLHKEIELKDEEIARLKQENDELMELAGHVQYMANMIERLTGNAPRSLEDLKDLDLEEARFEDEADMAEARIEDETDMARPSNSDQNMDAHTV

[2] = tested on: T2, geminin^DEL (geminin H with the nine amino acids of the destruction box RRTLKVIQP, 33-41, removed), translated in vitro
T2 sequence: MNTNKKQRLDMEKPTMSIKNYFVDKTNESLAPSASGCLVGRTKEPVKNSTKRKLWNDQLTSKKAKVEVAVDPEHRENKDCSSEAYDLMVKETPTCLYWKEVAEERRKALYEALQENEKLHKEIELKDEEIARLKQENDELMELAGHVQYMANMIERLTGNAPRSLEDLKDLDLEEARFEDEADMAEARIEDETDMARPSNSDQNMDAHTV

Xorc2 = target: T3, Xorc2 (Xenopus, UniProt Q91628 1-558); test: co-immunoprecipitation (preliminary experiments)
T3 sequence (looked up): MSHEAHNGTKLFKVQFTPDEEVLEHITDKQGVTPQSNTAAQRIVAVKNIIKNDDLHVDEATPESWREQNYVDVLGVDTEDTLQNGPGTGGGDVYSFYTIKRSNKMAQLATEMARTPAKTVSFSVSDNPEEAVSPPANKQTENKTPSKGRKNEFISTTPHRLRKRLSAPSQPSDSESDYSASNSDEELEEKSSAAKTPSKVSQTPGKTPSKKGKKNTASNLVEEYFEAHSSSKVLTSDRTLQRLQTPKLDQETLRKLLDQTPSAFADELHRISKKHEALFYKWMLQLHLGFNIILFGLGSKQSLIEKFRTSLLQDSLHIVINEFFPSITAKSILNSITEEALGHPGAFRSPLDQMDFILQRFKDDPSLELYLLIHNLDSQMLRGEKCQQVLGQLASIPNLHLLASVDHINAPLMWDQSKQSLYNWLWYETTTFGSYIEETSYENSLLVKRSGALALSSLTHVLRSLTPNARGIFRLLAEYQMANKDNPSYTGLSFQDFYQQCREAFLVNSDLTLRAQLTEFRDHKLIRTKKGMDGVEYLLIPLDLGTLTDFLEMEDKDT

Xmcm3 = target: T4, Xmcm3 (Xenopus, UniProt P49739 1-807); test: co-immunoprecipitation (preliminary experiments)
T4 sequence (looked up): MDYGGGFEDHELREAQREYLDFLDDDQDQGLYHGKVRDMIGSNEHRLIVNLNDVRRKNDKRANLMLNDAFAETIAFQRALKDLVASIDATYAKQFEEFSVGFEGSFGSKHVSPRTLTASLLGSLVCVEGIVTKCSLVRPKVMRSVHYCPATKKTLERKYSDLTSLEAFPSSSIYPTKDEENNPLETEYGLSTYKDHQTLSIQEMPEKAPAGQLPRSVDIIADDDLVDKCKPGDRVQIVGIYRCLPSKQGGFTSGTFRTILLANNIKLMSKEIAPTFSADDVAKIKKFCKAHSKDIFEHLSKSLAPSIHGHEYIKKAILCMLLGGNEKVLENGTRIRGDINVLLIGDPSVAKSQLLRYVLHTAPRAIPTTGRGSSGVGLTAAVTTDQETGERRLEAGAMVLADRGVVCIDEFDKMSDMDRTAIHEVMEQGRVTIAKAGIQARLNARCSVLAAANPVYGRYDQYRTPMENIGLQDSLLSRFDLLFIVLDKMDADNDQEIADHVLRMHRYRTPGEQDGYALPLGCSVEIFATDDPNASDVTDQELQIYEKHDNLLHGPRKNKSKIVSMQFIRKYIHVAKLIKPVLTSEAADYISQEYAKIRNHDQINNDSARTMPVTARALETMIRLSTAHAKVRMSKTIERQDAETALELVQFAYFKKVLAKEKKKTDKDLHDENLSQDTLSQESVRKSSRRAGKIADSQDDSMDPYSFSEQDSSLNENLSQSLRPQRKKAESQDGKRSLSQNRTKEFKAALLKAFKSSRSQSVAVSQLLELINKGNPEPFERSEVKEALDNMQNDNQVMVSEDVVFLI

## interphase APC (immunoprecipitated from interphase Xenopus egg extract)
[1]
  ubiquitin conjugates (ladder on autoradiogram) in a reconstituted ubiquitination reaction: The ladder did not appear ... if the APC was immunoprecipitated from interphase extracts (lane 7)

## mitotic anaphase promoting complex (APC) of Xenopus mitotic egg extract
[2]
  ubiquitin conjugates (ladder on autoradiogram) in a reconstituted ubiquitination reaction: The ladder did not appear if the destruction box mutant geminin^DEL was used as the substrate
[1]
  ubiquitin conjugates (ladder on autoradiogram) in a reconstituted ubiquitination reaction: a characteristic ladder of ubiquitin conjugates appeared above the starting material

B1: geminin (Xenopus; as used in the co-immunoprecipitation experiments) (other)
chain: T1 sequence
Xorc2
  binding result: no binding
Xmcm3
  binding result: no binding
